Residue numbers refer to the chain shown, from its start.

Experiment [1] deals with T1, hGARP-proTGFβ1 (human, UniProt Q14392 18-627; P01137 30-390, limits assumed).
T1 construct: LLC as m1; Same id used for the cell-surface complex in reporter assays; also called human GARP-proTGFβ1 complex; GARP-ProTGFb1
Kind of experiment: MSD-SET, hIgG4. As for the experimental part: (§1) For solution equilibrium titration-based binding assays, protein complexes that comprise one of the presenting molecules such as those shown above may be employed as antigen (presenting molecule-TGFβ1 complex, or an LLC). Test antibodies are allowed to form antigen-antibody complex in solution. Antigen-antibody reaction mixtures are incubated to allow an equilibrium to be reached; the amount of the antigen-antibody complex present in the assay reactions can be measured by suitable means well known in the art. As compared to BLI-based assays, SET-based assays are less affected by on/off rates of the antigen-antibody complex, allowing sensitive detection of very high affinity interactions.

Experiment [2] addresses T2, hLTBP3-proTGFβ1 (human, UniProt Q9NS15 44-1303; P01137 30-390, limits assumed).
T2 construct: LLC as m1; Same id used for the cell-made complex in reporter assays; also called human LTBP3-proTGFβ1 complex; LTBP3-ProTGFb1
Briefly: MSD-SET, hIgG4. How it is done: as §1

Experiment [3] addresses T3, hLTBP1-proTGFβ1 (human, UniProt Q14766 347-1721; P01137 30-390, limits assumed).
T3 construct: Large latent complex (LLC): proTGFβ1 dimer disulfide-linked to one presenting molecule; recombinant, purified, biotinylated in BLI/SPR; The same id is used for the complex made by transfected cells in the reporter assays; also called human LTBP1-proTGFβ1 complex; LTBP1-ProTGFb1
Briefly: MSD-SET, hIgG4. As for the experimental part: as §1

For experiment [4], the target named is T4, hLRRC33-proTGFβ1 (human, UniProt Q86YC3 19-650; P01137 30-390, limits assumed).
T4 construct: LLC as m1; Same id used for the cell-surface complex in reporter assays; also called human LRRC33-proTGFβ1 complex; LRRC33-ProTGFb1
Kind of experiment: MSD-SET, hIgG4. How it is done:
as §1

Experiment [5] addresses T1, hGARP-proTGFβ1. Kind of experiment: cell-based or functional assay.
The target of experiment [6] is T2, hLTBP3-proTGFβ1. Kind of experiment: cell-based or functional assay.
Experiment [7] addresses T3, hLTBP1-proTGFβ1. Kind of experiment: cell-based or functional assay.
Experiment [8] deals with T4, hLRRC33-proTGFβ1. Briefly: cell-based or functional assay.
Experiment [9] addresses T1, hGARP-proTGFβ1. Briefly: BLI (Octet). On the technique in general: Biolayer interferometry detects binding as a change in optical thickness at a sensor tip.
The target in experiment [10] is T2, hLTBP3-proTGFβ1. Kind of experiment: BLI (Octet).
In experiment [11] the target is T3, hLTBP1-proTGFβ1. Briefly: BLI (Octet).
Experiment [12] deals with T4, hLRRC33-proTGFβ1. Kind of experiment: BLI (Octet).
The target in experiment [13] is endogenous LTBP-proTGFβ1 of human LN229 cells (human, UniProt P01137 30-390). Kind of experiment: cell-based or functional assay.
Chain of endogenous LTBP-proTGFβ1 of human LN229 cells (P01137 30-390): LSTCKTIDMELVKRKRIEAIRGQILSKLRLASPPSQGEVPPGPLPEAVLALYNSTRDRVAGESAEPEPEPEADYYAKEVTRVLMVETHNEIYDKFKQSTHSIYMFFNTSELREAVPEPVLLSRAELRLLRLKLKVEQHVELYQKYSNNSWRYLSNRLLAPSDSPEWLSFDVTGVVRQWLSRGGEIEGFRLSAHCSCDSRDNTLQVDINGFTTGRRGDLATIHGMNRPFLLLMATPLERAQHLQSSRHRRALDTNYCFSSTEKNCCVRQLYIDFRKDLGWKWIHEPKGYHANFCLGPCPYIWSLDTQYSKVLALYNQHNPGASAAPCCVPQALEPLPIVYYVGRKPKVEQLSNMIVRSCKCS

T3 sequence (Q14766 347-1721 limits assumed, chain 1 of 2): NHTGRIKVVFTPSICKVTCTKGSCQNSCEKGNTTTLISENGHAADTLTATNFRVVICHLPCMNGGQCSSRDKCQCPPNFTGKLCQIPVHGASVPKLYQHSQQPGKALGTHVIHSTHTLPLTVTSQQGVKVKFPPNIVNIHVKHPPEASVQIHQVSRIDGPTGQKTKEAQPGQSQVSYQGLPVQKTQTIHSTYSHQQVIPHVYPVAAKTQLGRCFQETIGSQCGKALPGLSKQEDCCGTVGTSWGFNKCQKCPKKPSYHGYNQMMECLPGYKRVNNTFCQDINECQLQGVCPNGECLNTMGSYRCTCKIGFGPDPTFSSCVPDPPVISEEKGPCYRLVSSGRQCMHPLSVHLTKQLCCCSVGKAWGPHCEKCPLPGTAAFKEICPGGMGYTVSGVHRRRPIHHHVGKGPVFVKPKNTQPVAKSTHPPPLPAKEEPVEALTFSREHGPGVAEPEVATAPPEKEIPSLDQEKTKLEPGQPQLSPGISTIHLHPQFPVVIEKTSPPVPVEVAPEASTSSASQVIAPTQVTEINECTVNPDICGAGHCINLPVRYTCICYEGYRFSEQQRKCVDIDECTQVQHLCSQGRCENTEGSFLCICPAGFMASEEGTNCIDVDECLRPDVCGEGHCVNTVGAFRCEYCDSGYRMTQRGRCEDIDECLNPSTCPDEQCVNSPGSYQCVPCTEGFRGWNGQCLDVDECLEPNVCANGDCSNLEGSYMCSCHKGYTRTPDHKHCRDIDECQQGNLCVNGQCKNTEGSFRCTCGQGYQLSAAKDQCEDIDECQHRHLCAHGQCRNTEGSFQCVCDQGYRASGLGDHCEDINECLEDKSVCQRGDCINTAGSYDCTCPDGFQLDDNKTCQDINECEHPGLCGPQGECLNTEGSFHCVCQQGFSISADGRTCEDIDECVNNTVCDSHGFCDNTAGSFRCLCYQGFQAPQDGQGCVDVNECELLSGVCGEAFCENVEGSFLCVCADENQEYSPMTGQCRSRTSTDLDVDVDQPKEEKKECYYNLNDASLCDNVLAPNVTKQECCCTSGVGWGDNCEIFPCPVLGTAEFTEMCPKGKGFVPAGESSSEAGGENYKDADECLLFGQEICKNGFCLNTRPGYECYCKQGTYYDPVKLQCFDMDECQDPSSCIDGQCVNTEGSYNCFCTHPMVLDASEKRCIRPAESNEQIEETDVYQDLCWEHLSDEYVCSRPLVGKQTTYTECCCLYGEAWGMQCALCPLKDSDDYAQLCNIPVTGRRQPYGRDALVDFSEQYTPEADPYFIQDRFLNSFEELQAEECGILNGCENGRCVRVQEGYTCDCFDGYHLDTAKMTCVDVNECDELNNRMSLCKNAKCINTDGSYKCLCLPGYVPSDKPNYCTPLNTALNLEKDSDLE
T3 sequence (P01137 30-390 limits assumed, chain 2 of 2): as the sequence (P01137 30-390) above
T2 sequence (Q9NS15 44-1303 limits assumed, chain 1 of 2): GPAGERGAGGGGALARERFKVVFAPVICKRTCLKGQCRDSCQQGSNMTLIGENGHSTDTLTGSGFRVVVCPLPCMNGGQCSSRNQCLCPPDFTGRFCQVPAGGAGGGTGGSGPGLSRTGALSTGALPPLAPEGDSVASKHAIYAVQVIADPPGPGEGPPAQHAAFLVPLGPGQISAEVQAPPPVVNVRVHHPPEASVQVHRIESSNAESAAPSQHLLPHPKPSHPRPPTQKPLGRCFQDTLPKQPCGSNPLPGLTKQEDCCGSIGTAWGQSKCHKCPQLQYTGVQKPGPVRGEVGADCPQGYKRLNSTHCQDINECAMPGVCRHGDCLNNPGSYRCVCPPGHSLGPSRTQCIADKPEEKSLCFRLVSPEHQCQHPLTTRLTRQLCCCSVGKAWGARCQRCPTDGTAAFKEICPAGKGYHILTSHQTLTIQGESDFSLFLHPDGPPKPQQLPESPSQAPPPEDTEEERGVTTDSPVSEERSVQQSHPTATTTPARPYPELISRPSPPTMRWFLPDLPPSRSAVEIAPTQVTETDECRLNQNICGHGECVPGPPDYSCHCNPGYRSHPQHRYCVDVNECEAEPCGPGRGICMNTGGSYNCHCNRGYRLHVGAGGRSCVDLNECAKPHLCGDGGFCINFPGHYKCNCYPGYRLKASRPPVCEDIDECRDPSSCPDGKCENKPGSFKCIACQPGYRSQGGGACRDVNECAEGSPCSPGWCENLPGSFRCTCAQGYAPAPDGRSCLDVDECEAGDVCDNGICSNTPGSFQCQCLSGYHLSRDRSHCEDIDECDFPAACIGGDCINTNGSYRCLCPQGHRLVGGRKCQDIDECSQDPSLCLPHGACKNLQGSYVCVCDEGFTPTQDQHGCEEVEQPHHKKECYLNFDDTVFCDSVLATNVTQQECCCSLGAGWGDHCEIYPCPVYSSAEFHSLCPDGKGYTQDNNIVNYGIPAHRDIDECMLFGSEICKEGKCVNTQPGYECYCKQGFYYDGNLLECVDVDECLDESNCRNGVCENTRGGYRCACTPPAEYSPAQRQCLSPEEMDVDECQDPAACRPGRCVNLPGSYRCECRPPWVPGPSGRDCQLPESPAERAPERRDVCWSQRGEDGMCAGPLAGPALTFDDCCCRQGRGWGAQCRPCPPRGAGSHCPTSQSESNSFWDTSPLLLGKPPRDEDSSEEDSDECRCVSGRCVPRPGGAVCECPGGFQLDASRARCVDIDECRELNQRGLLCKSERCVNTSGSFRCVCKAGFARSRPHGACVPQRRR
T2 sequence (P01137 30-390 limits assumed, chain 2 of 2): as the sequence (P01137 30-390) above
T1 sequence (Q14392 18-627 limits assumed, chain 1 of 2): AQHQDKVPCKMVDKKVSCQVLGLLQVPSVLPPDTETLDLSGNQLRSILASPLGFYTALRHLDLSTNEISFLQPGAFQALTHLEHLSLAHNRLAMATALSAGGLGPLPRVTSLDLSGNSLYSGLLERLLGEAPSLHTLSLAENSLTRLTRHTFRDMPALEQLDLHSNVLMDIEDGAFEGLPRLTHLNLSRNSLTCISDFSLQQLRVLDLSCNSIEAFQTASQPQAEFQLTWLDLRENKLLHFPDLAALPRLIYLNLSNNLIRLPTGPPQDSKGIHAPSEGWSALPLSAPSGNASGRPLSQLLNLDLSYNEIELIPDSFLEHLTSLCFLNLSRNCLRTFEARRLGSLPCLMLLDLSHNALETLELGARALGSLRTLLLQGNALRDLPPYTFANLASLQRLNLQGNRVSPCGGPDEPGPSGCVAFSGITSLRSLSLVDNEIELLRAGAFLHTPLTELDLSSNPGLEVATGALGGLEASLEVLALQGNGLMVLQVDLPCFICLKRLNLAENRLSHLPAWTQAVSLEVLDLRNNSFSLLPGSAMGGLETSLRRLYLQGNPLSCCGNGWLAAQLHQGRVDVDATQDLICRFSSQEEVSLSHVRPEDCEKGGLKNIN
T1 sequence (P01137 30-390 limits assumed, chain 2 of 2): as the sequence (P01137 30-390) above
T4 sequence (Q86YC3 19-650 limits assumed, chain 1 of 2): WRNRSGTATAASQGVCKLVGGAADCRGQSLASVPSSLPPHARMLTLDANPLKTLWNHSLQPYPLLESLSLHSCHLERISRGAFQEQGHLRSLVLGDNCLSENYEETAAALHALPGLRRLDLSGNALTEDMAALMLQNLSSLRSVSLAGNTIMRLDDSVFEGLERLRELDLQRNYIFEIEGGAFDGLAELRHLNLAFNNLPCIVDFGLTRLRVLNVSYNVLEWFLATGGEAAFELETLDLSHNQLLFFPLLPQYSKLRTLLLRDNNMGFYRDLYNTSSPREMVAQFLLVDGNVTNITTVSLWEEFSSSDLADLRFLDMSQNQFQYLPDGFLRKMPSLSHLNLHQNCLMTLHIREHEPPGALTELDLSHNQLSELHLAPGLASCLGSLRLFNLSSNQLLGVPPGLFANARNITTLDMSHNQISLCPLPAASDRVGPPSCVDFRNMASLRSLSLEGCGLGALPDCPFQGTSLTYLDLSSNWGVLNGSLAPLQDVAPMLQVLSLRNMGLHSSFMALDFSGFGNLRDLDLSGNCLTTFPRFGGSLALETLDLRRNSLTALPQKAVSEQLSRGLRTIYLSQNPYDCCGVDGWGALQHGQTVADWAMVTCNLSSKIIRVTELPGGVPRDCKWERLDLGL
T4 sequence (P01137 30-390 limits assumed, chain 2 of 2): as the sequence (P01137 30-390) above

B1: Ab4 (antibody, V domains shown)
VH: EVQLVESGGGLVQPGGSLRLSCAASGFTFSSYSMNWVRQAPGKGLEWVSYISSSSSTIYYADSVKGRFTISRDNAKNSLYLQMNSLRAEDTAVYYCARGVLDYGDMLDPWGQGTLVTVSS
VL: DIQMTQSPSSLSASVGDRVTITCQASQDITNYLNWYQQKPGKAPKLLIYDASNLETGVPSRFSGSGSGTDFTFTISSLQPEDIATYYCQQADNHPPWTFGGGTKVEIK
What is called Kd is a measure of binding affinity in units of concentration. Read a high Kd as weaker binding. Consider B1, for which the Kd with hGARP-proTGFβ1 [1] was 2.5 nM; with hLTBP3-proTGFβ1 [2] it was 5.5 nM; with hLTBP1-proTGFβ1 [3] it was 4.6 nM; with hLRRC33-proTGFβ1 [4], 2.1 nM. Also, the “IC50, reporter cell assay” value came out at 0.8 nM in the experiment with hGARP-proTGFβ1 [5], 5.6 nM with hLTBP3-proTGFβ1 [6], 5.2 nM with hLTBP1-proTGFβ1 [7] and 3.5 nM with hLRRC33-proTGFβ1 [8].

B2: Ab29 (antibody, V domains shown)
VH: B1 VH with G16R, Y32F, S33A, S53P, S54D, S55A, D62G, A97V, G99A
VL: B1 VL
With B2, the Kd with hGARP-proTGFβ1 [1] worked out at 0.0055 nM; with hLTBP3-proTGFβ1 [2], 0.011 nM; with hLTBP1-proTGFβ1 [3], 0.012 nM; in the experiment with hLRRC33-proTGFβ1 [4], 0.043 nM; with hGARP-proTGFβ1 [9], 0.307 nM; with hLTBP3-proTGFβ1 [10], 0.121 nM. The Kd in the experiment with hLTBP1-proTGFβ1 [11] was 0.189 nM; with hLRRC33-proTGFβ1 [12], 0.302 nM. In addition, the “IC50, reporter cell assay” value in the experiment with hGARP-proTGFβ1 [5] worked out at 0.3 nM; with hLTBP3-proTGFβ1 [6], 0.8 nM; with hLTBP1-proTGFβ1 [7], 0.5 nM; in the experiment with hLRRC33-proTGFβ1 [8], 0.5 nM.

B3: Ab33 (antibody, V domains shown)
VH: B1 VH with Y32F, S53P, S55A, S56D, S78T, R98H
VL: B1 VL
For B3, the Kd in the experiment with hGARP-proTGFβ1 [1] stood at 0.0078 nM; in the experiment with hLTBP3-proTGFβ1 [2], 0.007 nM; with hLTBP1-proTGFβ1 [3] it was 0.011 nM; with hLRRC33-proTGFβ1 [4], 0.046 nM; in the experiment with hGARP-proTGFβ1 [9], 0.265 nM; with hLTBP3-proTGFβ1 [10], 0.111 nM. Besides, the Kd in the experiment with hLTBP1-proTGFβ1 [11] came to 0.179 nM; with hLRRC33-proTGFβ1 [12], 0.339 nM. Also, the “IC50, reporter cell assay” value in the experiment with hGARP-proTGFβ1 [5] came to 0.2 nM; with hLTBP3-proTGFβ1 [6] it was 1.1 nM; with hLTBP1-proTGFβ1 [7], 1.6 nM; with hLRRC33-proTGFβ1 [8] it was 0.7 nM.

B4: Ab26 (antibody, V domains shown)
VH: B1 VH with Y32F, N35D, S53P, S54D, S55A, S78T
VL: B1 VL
Regarding B4, the Kd with hGARP-proTGFβ1 [1] amounted to 0.014 nM; in the experiment with hLTBP3-proTGFβ1 [2] it was 0.023 nM; with hLTBP1-proTGFβ1 [3] it was 0.028 nM; in the experiment with hLRRC33-proTGFβ1 [4], 0.13 nM; with hGARP-proTGFβ1 [9], 0.625 nM; with hLTBP3-proTGFβ1 [10], 0.173 nM. Moreover, the Kd amounted to 0.221 nM with hLTBP1-proTGFβ1 [11] and 0.36 nM in the experiment with hLRRC33-proTGFβ1 [12]. For the same molecule, the “IC50, reporter cell assay” value with hGARP-proTGFβ1 [5] came out at 0.3 nM; with hLTBP3-proTGFβ1 [6], 0.7 nM; with hLTBP1-proTGFβ1 [7], 0.7 nM; in the experiment with hLRRC33-proTGFβ1 [8], 0.3 nM.

B5: Ab46 (hIgG4) (antibody, V domains shown)
VH: EVQLLESGGGLVQPGGSLRLSCAASGFTFADYAMTWVRQAPGKGLEWVSAISGSGAATYFADSVKGRFTISRDNSKNTLYLQMNSLRAEDTAVYYCARVSSGHWDYDYWGQGTLVTVSS
VL: DIQLTQSPSSLSASVGDRVTITCRASQSISSYLNWYQQKPGKAPKLLIYAASGLESGVPSRFSGSGSGTDFTLTISSLQPEDFATYYCQQTYGVPLTFGGGTKVEIK
For the molecule B5, the “mAb IC50” value in [13] stood at 0.95 nM.

For the origin of these results see patent US20240294623A1 (SCHOLAR ROCK, published 2024).
